IC50 and percent of [3H]-MLA binding displaced data for one molecule are collected here from patent US6936457.

As usually defined, the IC50 is the concentration that inhibits the measured activity by half. Read a low IC50 as higher potency.

The target in this assay is human neuronal nicotinic acetylcholine receptor α7 subunit (human), P36544.
human neuronal nicotinic acetylcholine receptor α7 subunit (human), P36544, sequence (P36544 23-502 limits assumed): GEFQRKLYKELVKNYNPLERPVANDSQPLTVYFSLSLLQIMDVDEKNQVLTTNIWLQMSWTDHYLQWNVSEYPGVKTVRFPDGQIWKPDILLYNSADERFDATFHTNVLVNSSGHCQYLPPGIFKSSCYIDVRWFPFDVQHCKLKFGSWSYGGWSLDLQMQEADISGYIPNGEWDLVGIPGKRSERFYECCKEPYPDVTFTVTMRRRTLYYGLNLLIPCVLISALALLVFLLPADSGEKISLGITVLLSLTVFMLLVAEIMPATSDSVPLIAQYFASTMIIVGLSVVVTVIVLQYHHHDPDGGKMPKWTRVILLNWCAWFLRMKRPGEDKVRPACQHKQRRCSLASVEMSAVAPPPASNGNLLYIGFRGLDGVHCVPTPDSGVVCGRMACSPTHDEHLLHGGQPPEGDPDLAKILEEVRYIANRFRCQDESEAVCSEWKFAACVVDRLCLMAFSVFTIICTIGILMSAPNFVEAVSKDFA

B1: α-bungarotoxin, P60615 22-95 (peptide)
chain: IVCHTTATSPISAVTCPPGENLCYRKMWCDAFCSSRGKVVELGCAATCPSKKPYEEVTCCSTDKCNPHPKQRPG
modifications: not checked
Regarding B1, the IC50 stood at 3 nM and the percent of [3H]-MLA binding displaced worked out at 65%.
